T1: recombinant BCMA (Sino Biological 10620-H03H-B) (human, UniProt Q02223 1-54)
T1 construct: Bought protein; also called human BCMA
T1 sequence (looked up): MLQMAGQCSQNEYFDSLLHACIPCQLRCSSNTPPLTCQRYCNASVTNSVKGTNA

B1: humanized h18E4-19 antibody (antibody, V domains shown)
VH: EVQLLESGGGLVQPGGSLRLSCAASGFSFNNYWIIWIRQAPGKGLEWVAAIYSPSGDIKYYADWAKGRFTVSKDNSKNTVYLQMNSLRAEDTAVYYCARELSGSSYEGYFESWGQGTLVTVSS
VL: DIQLTQSPSTLSASVGDRVTITCRSSQSVYGHNWLAWYQQKPGKAPKLLMYRASNLASGVPSRFSGSGSGTEFTLTISSVQPDDFATYYCQGYYSGGSYAFGGGTKVEIK
notes: the control is hIgG1; also called hu18E4-19; Anti-CD38
B2: Anti-CD38 HC_E100bA (antibody, V domains shown)
VH: B1 VH with E107A
VL: B1 VL
notes: Alanine variant of h18E4-19 with the parent VL
B3: Anti-CD38 HC_Y100aA (antibody, V domains shown)
VH: B1 VH with Y106A
VL: B1 VL
notes: as for B2
B4: Anti-CD38 LC_S93A (antibody, V domains shown)
VH: B1 VH
VL: B1 VL with S95A
notes: Alanine variant of h18E4-19 with the parent VH
B5: Anti-CD38 LC_G90A (antibody, V domains shown)
VH: B1 VH
VL: B1 VL with G92A
notes: as for B4
B6: Anti-CD38 LC_Q89A (antibody, V domains shown)
VH: B1 VH
VL: B1 VL with Q91A
notes: Alanine variant of h18E4-19 with the parent VH; also called Anti-CD38med
B7: Anti-CD38 LC_G94A (antibody, V domains shown)
VH: B1 VH
VL: B1 VL with G96A
notes: Alanine variant of h18E4-19 with the parent VH; also called Anti-CD38low
B8: Anti-CD38 HC_S100A (antibody, V domains shown)
VH: B1 VH with S105A
VL: B1 VL
notes: as for B2
B9: Anti-CD38 HC_L96A (antibody, V domains shown)
VH: B1 VH with L101A
VL: B1 VL
notes: as for B2
B10: Anti-CD38 LC_S95aA (antibody, V domains shown)
VH: B1 VH
VL: B1 VL with S98A
notes: as for B4
B11: Anti-CD38 HC_Y100dA (antibody, V domains shown)
VH: B1 VH with Y109A
VL: B1 VL
notes: as for B2
B12: Anti-CD38 LC_Y91A (antibody, V domains shown)
VH: B1 VH
VL: B1 VL with Y93A
notes: as for B4
B13: Anti-CD38 HC_G98A (antibody, V domains shown)
VH: B1 VH with G103A
VL: B1 VL
notes: as for B2
B14: Anti-CD38 HC_S99A (antibody, V domains shown)
VH: B1 VH with S104A
VL: B1 VL
notes: as for B2
B15: Anti-CD38 LC_Y92A (antibody, V domains shown)
VH: B1 VH
VL: B1 VL with Y94A
notes: as for B4
B16: Anti-CD38 HC_E95A (antibody, V domains shown)
VH: B1 VH with E100A
VL: B1 VL
notes: as for B2
B17: Anti-CD38 HC_G100cA (antibody, V domains shown)
VH: B1 VH with G108A
VL: B1 VL
notes: as for B2
B18: Anti-CD38 HC_S102A (antibody, V domains shown)
VH: B1 VH with S112A
VL: B1 VL
notes: as for B2
B19: Anti-CD38 LC_G95A (antibody, V domains shown)
VH: B1 VH
VL: B1 VL with G97A
notes: as for B4
B20: Anti-CD38 HC_F100eA (antibody, V domains shown)
VH: B1 VH with F110A
VL: B1 VL
notes: as for B2
B21: Anti-CD38 HC_E101A (antibody, V domains shown)
VH: B1 VH with E111A
VL: B1 VL
notes: as for B2
B22: Anti-CD38 LC_Y96A (antibody, V domains shown)
VH: B1 VH
VL: B1 VL with Y99A
notes: as for B4
B23: Anti-CD38 HC_S97A (antibody, V domains shown)
VH: B1 VH with S102A
VL: B1 VL
notes: as for B2
B24: Anti-BCMA (antibody, human IgG1, kappa)
heavy: not shown
light: DIQLTQTTSSLSASLGDRVTISCSASQDISNYLNWYQQKPDGTVELVIYYTSNLHSGVPSRFSGSGSGTDYSLTIGYLEPEDVATYYCQQYRKLPWTFGGGSKLEIKRTVAAPSVFIFPPSDEQLKSGTASVVCLLNNFYPREAKVQWKVDNALQSGNSQESVTEQDSKDSTYSLSSTLTLSKADYEKHKVYACEVTHQGLSSPVTKSFNRGEC
notes: also called Anti-BCMA BMK2 antibody; Anti-BCMA.BMK2
B25: Anti-BCMA.BMK2_ADCC.high (antibody, human IgG1, kappa)
heavy: EVQLQQSGAVLARPGASVKMSCKGSGYTFTNYWMHWVKQRPGQGLEWIGATYRGHSDTYYNQKFKGKAKLTAVTSTSTAYMELSSLTNEDSAVYYCTRGAIYNGYDVLDNWGQGTLVTVSSASTKGPSVFPLAPSSKSTSGGTAALGCLVKDYFPEPVTVSWNSGALTSGVHTFPAVLQSSGLYSLSSVVTVPSSSLGTQTYICNVNHKPSNTKVDKKVEPKSCDKTHTCPPCPAPELLGGPDVFLFPPKPKDTLMISRTPEVTCVVVDVSHEDPEVKFNWYVDGVEVHNAKTKPREEQYNSTYRVVSVLTVLHQDWLNGKEYKCKVSNKALPLPEEKTISKAKGQPREPQVYTLPPSRDELTKNQVSLTCLVKGFYPSDIAVEWESNGQPENNYKTTPPVLDSDGSFFLYSKLTVDKSRWQQGNVFSCSVMHEALHNHYTQKSLSLSPGK
light: DIQLTQTTSSLSASLGDRVTISCSASQDISNYLNWYQQKPDGTVELVIYYTSNLHSGVPSRFSGSGSGTDYSLTIGYLEPEDVATYYCQQYRKLPWTFGGGSKLEIKRRTVAAPSVFIFPPSDEQLKSGTASVVCLLNNFYPREAKVQWKVDNALQSGNSQESVTEQDSKDSTYSLSSTLTLSKADYEKHKVYACEVTHQGLSSPVTKSFNRGEC
notes: Monoclonal IgG1 with ADCC-high Fc mutations; also called ADCC-high variant of Anti-BCMA BMK2 antibody

Consider 25 molecules from patent publication US20230183381A1 (VIRTUOSO BINCO, published 2023).

Numbering of substitutions follows the chain as printed. Some results are limits rather than exact numbers.

The target in the first experiment is T2, human CD38 extracellular domain (hCD38, recombinant, with AviTag) (human, UniProt P28907 43-300).
T2 construct: also called recombinant CD38; huCD38
The experiment can be described thus: ELISA on human CD38 ECD, EC50 class. In general terms: ELISA stands for enzyme-linked immunosorbent assay.
For orientation: EC50 means the concentration that produces a half-maximal response. B1: the concentration for a half-maximal effect (EC50) was in the range of 0.02 to 0.1 nM. As for B2, the EC50 is over 0.5 nM. Same read-out and setting: the result for B3 reads 0.02 to 0.1 nM.

B4: the EC50 was 0.1 to 0.5 nM.

Regarding B5, the EC50 lay in the range of 0.1 to 0.5 nM. Same read-out and setting: the result for B6 reads 0.02 to 0.1 nM; that for B7, over 0.5 nM; that for B8, 0.02 to 0.1 nM. With B9, the EC50 was in the range of 0.02 to 0.1 nM. Take B10: the EC50 lay in the range of 0.02 to 0.1 nM. The same measure, in the same setting: the result for B11 reads over 0.5 nM. Same read-out and setting: the result for B12 reads over 0.5 nM. Same read-out and setting: the result for B13 reads 0.02 to 0.1 nM; that for B14, 0.02 to 0.1 nM.

For B15, the EC50 fell in the range of 0.02 to 0.1 nM. The same measure, in the same setting: the figure for B16 is over 0.5 nM; for B17 it is 0.1 to 0.5 nM. Take B18: the EC50 lay in the range of 0.02 to 0.1 nM. Still for that read-out and setting: the result for B19 reads 0.02 to 0.1 nM; that for B20, 0.02 to 0.1 nM; that for B21, 0.02 to 0.1 nM. Same read-out and setting: the result for B22 reads 0.1 to 0.5 nM; that for B23, 0.02 to 0.1 nM.

The next experiment has as its target T1, recombinant BCMA (Sino Biological …). Kind of experiment: ELISA, plate coated with recombinant BCMA.
Procedure: After washing 3 times, the plate was blocked with 300 μl 1% BSA in PBST at 37° C. for 1 hour. Serially diluted antibodies were added and incubated at 37° C. for 1 hour. The plate was then washed 4 times with PBST and incubated with 1:5000 diluted 2nd antibody (Sigma, Cat #A0293) at 37° C. for 1 hour. The plate was washed again 4 times with PBST, incubated with TMB substrate for 15 min at room temperature, terminated with IN HCl, and then read at 450 nm.
In the case of B24, the EC50 is about 0.02 nM. With B25, the EC50 was about 0.02 nM.
